The source of these data is patent US20070298043A1 (RAMOT AT TEL AVIV UNIVERSITY, published 2007).

The target of experiment [1] is T1, GST-YoeB fusion protein (Escherichia coli, UniProt P69348 1-84).
T1 construct: also called YoeB-GST; GST-YoeB fusion polypeptide; not shown: glutathione S-transferase (GST) fusion partner encoded by the pET42a expression vector (Novagen); vector-encoded linker of pET42a between GST and the EcoRI cloning site; not described
T1 sequence: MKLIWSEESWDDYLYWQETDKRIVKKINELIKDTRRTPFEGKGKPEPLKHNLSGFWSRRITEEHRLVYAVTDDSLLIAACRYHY
Kind of experiment: peptide array on cellulose membrane, single-residue shift, high stringency, GST-YoeB probe, anti-GST antibody and chemiluminescence. The protocol:
(§1) Following incubation, the membrane was washed once in TBS-T then supplemented with 10 ml suspension comprising TBS, mouse anti-GST antibody and horseradish peroxidase conjugated goat anti-mouse antibody in the appropriate titers. Following 1 hour incubation at room temperature the membrane was briefly washed with TBS-T and TBS.

The target in experiment [2] is T1, GST-YoeB fusion protein. The experiment can be described thus: peptide array on cellulose membrane, anti-GST detection. The protocol:
as §1

The target of experiment [3] is T1, GST-YoeB fusion protein. The experiment can be described thus: peptide array, low stringency.
Experiment [4] deals with T1, GST-YoeB fusion protein. Kind of experiment: peptide array on cellulose membrane, low stringency, GST-YoeB probe, anti-GST antibody and chemiluminescence.
Experiment [5] concerns the target T1, GST-YoeB fusion protein. Kind of experiment: peptide array of single-replacement analogs. The protocol:
as §1

B1: 12-24 (peptide)
peptide: TISYSEARQNLSA
notes: Cell not labelled; also called YefM12-24 peptide
B1: the binding result with GST-YoeB fusion protein [1] is given as “binds”. Consider RTISYSEAAQNLS (Arrayed on a cellulose membrane) [YefM11-23 analog with arginine 19 replaced by alanine], for which the binding result with GST-YoeB fusion protein [2] was “no binding”.

For the molecule DSIDSLKSGKGTE [YefM75-87 peptide], the binding result in the experiment with GST-YoeB fusion protein [3] is given as “binds”.

Turning to YSEARQNLSATMM [YefM15-27 peptide], the binding result in the experiment with GST-YoeB fusion protein [4] is reported as “binds”. With RTISYSEAGQNLS (Arrayed on a cellulose membrane) [YefM11-23 analog with arginine 19 replaced by glycine], the binding result with GST-YoeB fusion protein [2] is “no binding”. In the case of RTISYSEARQNAS (Position 22 counts on whole YefM) [YefM11-23 analog with leucine 22 replaced by alanine], the binding result with GST-YoeB fusion protein [5] was “binds”.

B2: 10-22 (peptide)
peptide: MRTISYSEARQNL
notes: Cell not labelled; also called YefM10-22 peptide
Take B2: in the experiment with GST-YoeB fusion protein [1], the binding result was “binds”.

In the case of RTISYSEARQNGS (Position 22 counts on whole YefM) [YefM11-23 analog with leucine 22 replaced by glycine], in the experiment with GST-YoeB fusion protein [5], the binding result is “binds”.

B3: YefM13-25 peptide (peptide)
peptide: ISYSEARQNLSAT
notes: It follows from 'YefM11-23-YefM15-27', three tridecamers with a shift of two amino acids; also called second of the three tridecamers YefM11-23-YefM15-27
For B3, in the experiment with GST-YoeB fusion protein [4], the binding result was “binds”.
